The source of these data is the supplement of paper PMC6755084.

Sequences and labels used below:
B1: F1*; the commonest letter at each place (parent)
chain: GAGACCGCAACTGAAAAGTTGTTATCACTTGTCGTAAGACACTTTGGATGGGTTGAAGTTCTGCACGTAGAAGCAAAAGGC

Variants of B1 are the subject of the series. The series can be described thus: fraction ligated after 30 min (ligated reads / total reads); higher = more ligase activity. The following applies: with F1*sub RNA substrate (template-directed ligation), 42 °C. In short, it runs like this:
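Oligo-pool templates underwent PCR amplification, T7 transcription and gel purification to yield ribozyme variants. Gel-separated ligated and unligated bands were converted to complementary DNA with barcoded primers and sequenced on a MiSeq, keeping core bases of quality ≥20. The ratio of ligated reads to total reads gave the fraction ligated for every variant.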
Regarding GAGACCGCAACTGAAAAGTTGTTATCACTTGTCCTAAGACACATTGGATGGGTTGAAGTTCTGCACGTAGAAGCAAAAGGC, the fraction ligated came out at 0.843.
As for GAGACCGCAACTGAAAAGTTGTTATCACTTGTCCTAAGACACGTTGGATGGGTTGAAGTTCTGCACGTAGAAGCAAAAGGC, the fraction ligated is 0.809.
Under GAGACCGCAACTGAAAAGTTGTTATCACTTGTCCTAAGACACCTTGGATGGGTTGAAGTTCTGCACGTAGAAGCAAAAGGC stands 0.78; under GAGACCGCAACTGAAAAGTTGTTATCACTTGTCTTACGACACTTTGGATGGGTTGAAGTTCTGCACGTAGAAGCAAAAGGC, 0.844; under GAGACCGCAACTGAAAAGTTGTTATCACTTGTCTTAGGACACTTTGGATGGGTTGAAGTTCTGCACGTAGAAGCAAAAGGC, 0.829.
Turning to GAGACCGCAACTGAAAAGTTGTTATCACTTGTCTTATGACACTTTGGATGGGTTGAAGTTCTGCACGTAGAAGCAAAAGGC, the fraction ligated is 0.843.
On to GAGACCGCAACTGAAAAGTTGTTATCACTTGTCTTAAGACACTTTGTATGGGTTGAAGTTCTGCACGTAGAAGCAAAAGGC, for which the fraction ligated turned out to be 0.363.
For GAGACCGCAACTGAAAAGTTGTTATCACTTGTCTTAAGACACTTTGAATGGGTTGAAGTTCTGCACGTAGAAGCAAAAGGC, the fraction ligated came to 0.764.
Turning to GAGACCGCAACTGAAAAGTTGTTATCACTTGTCTTAAGACACTTTGCATGGGTTGAAGTTCTGCACGTAGAAGCAAAAGGC, the fraction ligated turned out to be 0.342.
For GAGACCGCAACTGAAAAGTTGTTATCACTTGTCCTAAGACACTTTGGACGGGTTGAAGTTCTGCACGTAGAAGCAAAAGGC, the fraction ligated worked out at 0.0345.
Under GAGACCGCAACTGAAAAGTTGTTATCACTTGTCCTAAGACACTTTGGAGGGGTTGAAGTTCTGCACGTAGAAGCAAAAGGC stands 0.75.
The figure for GAGACCGCAACTGAAAAGTTGTTATCACTTGTCCTAAGACACTTTGGAAGGGTTGAAGTTCTGCACGTAGAAGCAAAAGGC is 0.776; for GAGACCGCAACTGAAAAGTTGTTATCACTTGTCTTTAGACACTTTGGATGGGTTGAAGTTCTGCACGTAGAAGCAAAAGGC it is 0.827; for GAGACCGCAACTGAAAAGTTGTTATCACTTGTCTTGAGACACTTTGGATGGGTTGAAGTTCTGCACGTAGAAGCAAAAGGC it is 0.834.
Under GAGACCGCAACTGAAAAGTTGTTATCACTTGTCTTCAGACACTTTGGATGGGTTGAAGTTCTGCACGTAGAAGCAAAAGGC stands 0.843; under GAGACCGCAACTGAAAAGTTGTTATCACTTGTCTTAAGGCACTTTGGATGGGTTGAAGTTCTGCACGTAGAAGCAAAAGGC, 0.808; under GAGACCGCAACTGAAAAGTTGTTATCACTTGTCTTAAGTCACTTTGGATGGGTTGAAGTTCTGCACGTAGAAGCAAAAGGC, 0.804.
As to GAGACCGCAACTGAAAAGTTGTTATCACTTGTCTTAAGCCACTTTGGATGGGTTGAAGTTCTGCACGTAGAAGCAAAAGGC, the fraction ligated was determined as 0.779.
Under GAGACCGCAACTGAAAAGTTGTTATCACTTGTCCTAAGACACTCTGGATGGGTTGAAGTTCTGCACGTAGAAGCAAAAGGC stands 0.803.
GAGACCGCAACTGAAAAGTTGTTATCACTTGTCCTAAGACACTATGGATGGGTTGAAGTTCTGCACGTAGAAGCAAAAGGC: the fraction ligated was found to be 0.816.
Under GAGACCGCAACTGAAAAGTTGTTATCACTTGTCCTAAGACACTGTGGATGGGTTGAAGTTCTGCACGTAGAAGCAAAAGGC stands 0.84; under GAGACCGCAACTGAAAAGTTGTTATCACTTGTCCTAAGACACTTCGGATGGGTTGAAGTTCTGCACGTAGAAGCAAAAGGC, 0.733; under GAGACCGCAACTGAAAAGTTGTTATCACTTGTCCTAAGACACTTGGGATGGGTTGAAGTTCTGCACGTAGAAGCAAAAGGC, 0.0478.
As to GAGACCGCAACTGAAAAGTTGTTATCACTTGTCCTAAGACACTTAGGATGGGTTGAAGTTCTGCACGTAGAAGCAAAAGGC, the fraction ligated came out at 0.0783.
Under GAGACCGCAACTGAAAAGTTGTTATCACTTGTCTCAAGACACTTTGGATGGGTTGAAGTTCTGCACGTAGAAGCAAAAGGC stands 0.81; under GAGACCGCAACTGAAAAGTTGTTATCACTTGTCTGAAGACACTTTGGATGGGTTGAAGTTCTGCACGTAGAAGCAAAAGGC, 0.847; under GAGACCGCAACTGAAAAGTTGTTATCACTTGTCTAAAGACACTTTGGATGGGTTGAAGTTCTGCACGTAGAAGCAAAAGGC, 0.854.
For GAGACCGCAACTGAAAAGTTGTTATCACTTGTCTTAAAACACTTTGGATGGGTTGAAGTTCTGCACGTAGAAGCAAAAGGC, the fraction ligated was 0.836.
The figure for GAGACCGCAACTGAAAAGTTGTTATCACTTGTCTTAATACACTTTGGATGGGTTGAAGTTCTGCACGTAGAAGCAAAAGGC is 0.82; for GAGACCGCAACTGAAAAGTTGTTATCACTTGTCTTAACACACTTTGGATGGGTTGAAGTTCTGCACGTAGAAGCAAAAGGC it is 0.83; for GAGACCGCAACTGAAAAGTTGTTATCACTTGTCTTAAGACACTTTAGATGGGTTGAAGTTCTGCACGTAGAAGCAAAAGGC it is 0.823.
Under GAGACCGCAACTGAAAAGTTGTTATCACTTGTCTTAAGACACTTTCGATGGGTTGAAGTTCTGCACGTAGAAGCAAAAGGC stands 0.778.
Regarding GAGACCGCAACTGAAAAGTTGTTATCACTTGTCTTAAGACACTTTTGATGGGTTGAAGTTCTGCACGTAGAAGCAAAAGGC, the fraction ligated was determined as 0.763.
Take GAGACCGCAACTGAAAAGTTGTTATCACTTGTCTTAAGAAACTTTGGATGGGTTGAAGTTCTGCACGTAGAAGCAAAAGGC: the fraction ligated is 0.802.
The figure for GAGACCGCAACTGAAAAGTTGTTATCACTTGTCTTAAGAGACTTTGGATGGGTTGAAGTTCTGCACGTAGAAGCAAAAGGC is 0.811; for GAGACCGCAACTGAAAAGTTGTTATCACTTGTCTTAAGATACTTTGGATGGGTTGAAGTTCTGCACGTAGAAGCAAAAGGC it is 0.809; for GAGACCGCAACTGAAAAGTTGTTATCACTTGTCCTAAGACACTTTGGATGGGTTAAAGTTCTGCACGTAGAAGCAAAAGGC it is 0.838.
Consider GAGACCGCAACTGAAAAGTTGTTATCACTTGTCCTAAGACACTTTGGATGGGTTCAAGTTCTGCACGTAGAAGCAAAAGGC, for which the fraction ligated turned out to be 0.768.
Under GAGACCGCAACTGAAAAGTTGTTATCACTTGTCCTAAGACACTTTGGATGGGTTTAAGTTCTGCACGTAGAAGCAAAAGGC stands 0.809.
As to GAGACCGCAACTGAAAAGTTGTTATCACTTGTCTTAAGACAGTTTGGATGGGTTGAAGTTCTGCACGTAGAAGCAAAAGGC, the fraction ligated stood at 0.841.
For the variant GAGACCGCAACTGAAAAGTTGTTATCACTTGTCTTAAGACATTTTGGATGGGTTGAAGTTCTGCACGTAGAAGCAAAAGGC, the fraction ligated was 0.848.
Take GAGACCGCAACTGAAAAGTTGTTATCACTTGTCTTAAGACAATTTGGATGGGTTGAAGTTCTGCACGTAGAAGCAAAAGGC: the fraction ligated came out at 0.849.
The figure for GAGACCGCAACTGAAAAGTTGTTATCACTTGTCTTAAGACACCTTGGATGGGTTGAAGTTCTGCACGTAGAAGCAAAAGGC is 0.782; for GAGACCGCAACTGAAAAGTTGTTATCACTTGTCTTAAGACACATTGGATGGGTTGAAGTTCTGCACGTAGAAGCAAAAGGC it is 0.827; for GAGACCGCAACTGAAAAGTTGTTATCACTTGTCTTAAGACACGTTGGATGGGTTGAAGTTCTGCACGTAGAAGCAAAAGGC it is 0.793.
With GAGACCGCAACTGAAAAGTTGTTATCACTTGTCTTAAGACACTTTGGATGGGTTGATGTTCTGCACGTAGAAGCAAAAGGC, the fraction ligated was found to be 0.81.
Turning to GAGACCGCAACTGAAAAGTTGTTATCACTTGTCTTAAGACACTTTGGATGGGTTGAGGTTCTGCACGTAGAAGCAAAAGGC, the fraction ligated turned out to be 0.84.
The figure for GAGACCGCAACTGAAAAGTTGTTATCACTTGTCTTAAGACACTTTGGATGGGTTGACGTTCTGCACGTAGAAGCAAAAGGC is 0.806; for GAGACCGCAACTGAAAAGTTGTTATCACTTGTCCTAAGACACTTTGGATTGGTTGAAGTTCTGCACGTAGAAGCAAAAGGC it is 0.733; for GAGACCGCAACTGAAAAGTTGTTATCACTTGTCCAAAGACACTTTGGATGGGTTGAAGTTCTGCACGTAGAAGCAAAAGGC it is 0.815.
The figure for GAGACCGCAACTGAAAAGTTGTTATCACTTGTCCCAAGACACTTTGGATGGGTTGAAGTTCTGCACGTAGAAGCAAAAGGC is 0.835.
Under GAGACCGCAACTGAAAAGTTGTTATCACTTGTCCGAAGACACTTTGGATGGGTTGAAGTTCTGCACGTAGAAGCAAAAGGC stands 0.829; under GAGACCGCAACTGAAAAGTTGTTATCACTTGTCTTAAGACACTTTGGATGGGTTAAAGTTCTGCACGTAGAAGCAAAAGGC, 0.835.
Take GAGACCGCAACTGAAAAGTTGTTATCACTTGTCTTAAGACACTTTGGATGGGTTTAAGTTCTGCACGTAGAAGCAAAAGGC: the fraction ligated was 0.81.
With GAGACCGCAACTGAAAAGTTGTTATCACTTGTCTTAAGACACTTTGGATGGGTTCAAGTTCTGCACGTAGAAGCAAAAGGC, the fraction ligated stood at 0.796.
GAGACCGCAACTGAAAAGTTGTTATCACTTGTCTTAAGACACTTTGGATAGGTTGAAGTTCTGCACGTAGAAGCAAAAGGC: the fraction ligated was determined as 0.606.
Take GAGACCGCAACTGAAAAGTTGTTATCACTTGTCTTAAGACACTTTGGATCGGTTGAAGTTCTGCACGTAGAAGCAAAAGGC: the fraction ligated was found to be 0.396.
Under GAGACCGCAACTGAAAAGTTGTTATCACTTGTCTTAAGACACTTTGGATTGGTTGAAGTTCTGCACGTAGAAGCAAAAGGC stands 0.767; under GAGACCGCAACTGAAAAGTTGTTATCACTTGTCTTAAGACACTTTGGATGGGTTGAAGTTCTGCACGTAGAAGCAAAAGGC, 0.848; under GAGACCGCAACTGAAAAGTTGTTATCACTTGTCTTAAGACACTTTGGATGGGTTGCAGTTCTGCACGTAGAAGCAAAAGGC, 0.805.
For the variant GAGACCGCAACTGAAAAGTTGTTATCACTTGTCTTAAGACACTTTGGATGGGTTGGAGTTCTGCACGTAGAAGCAAAAGGC, the fraction ligated was 0.785.
Under GAGACCGCAACTGAAAAGTTGTTATCACTTGTCTTAAGACACTTTGGATGGGTTGTAGTTCTGCACGTAGAAGCAAAAGGC stands 0.793; under GAGACCGCAACTGAAAAGTTGTTATCACTTGTCTTAAGACACTTTGGCTGGGTTGAAGTTCTGCACGTAGAAGCAAAAGGC, 0.756; under GAGACCGCAACTGAAAAGTTGTTATCACTTGTCTTAAGACACTTTGGTTGGGTTGAAGTTCTGCACGTAGAAGCAAAAGGC, 0.801.
For the variant GAGACCGCAACTGAAAAGTTGTTATCACTTGTCTTAAGACACTTTGGGTGGGTTGAAGTTCTGCACGTAGAAGCAAAAGGC, the fraction ligated is 0.77.
GAGACCGCAACTGAAAAGTTGTTATCACTTGTCTTAAGACCCTTTGGATGGGTTGAAGTTCTGCACGTAGAAGCAAAAGGC: the fraction ligated turned out to be 0.755.
Under GAGACCGCAACTGAAAAGTTGTTATCACTTGTCTTAAGACTCTTTGGATGGGTTGAAGTTCTGCACGTAGAAGCAAAAGGC stands 0.763; under GAGACCGCAACTGAAAAGTTGTTATCACTTGTCTTAAGACGCTTTGGATGGGTTGAAGTTCTGCACGTAGAAGCAAAAGGC, 0.768.
